Where two headings read alike, the source gives them in different places.
How the values were obtained:
Tg2576 mice = conditions: mouse, in vivo
[1] = type: physicochemical
[2] = tested on: human neuroblastoma cell line (SK-N-SH)

Aβ1-42: amyloid β peptide 1-42, control peptide and comparison immunogen
radial arm maze skills (Tg2576 mice): had the radial arm maze skills of the positive control | alpha (secondary structure by CD) ([1]; Time 0 hr): 9% | beta-sheet (secondary structure by CD) ([1]; Time 0 hr): 36% | random (secondary structure by CD) ([1]; Time 0 hr): 55% | alpha (secondary structure by CD) ([1]; Time 24 hr): 9% | beta-sheet (secondary structure by CD) ([1]; Time 24 hr): 40% | random (secondary structure by CD) ([1]; Time 24 hr): 51% | alpha (secondary structure by CD) ([1]; Time 96 hr): 5% | beta-sheet (secondary structure by CD) ([1]; Time 96 hr): 55% | random (secondary structure by CD) ([1]; Time 96 hr): 40% | aggregates visible under the microscope in culture wells [2]: aggregates were visible | toxicity to neuroblastoma cells (MTT) [2]: toxic
